Measured values from IntAct's records for PubMed 29039417.

B1: BBSome complex member BBS5 (Homo sapiens), Q8N3I7 (parent)
chain: MSVLDALWEDRDVRFDLSAQQMKTRPGEVLIDCLDSIEDTKGNNGDRGRLLVTNLRILWHSLALSRVNVSVGYNCILNITTRTANSKLRGQTEALYILTKCNSTRFEFIFTNLVPGSPRLFTSVMAVHRAYETSKMYRDFKLRSALIQNKQLRLLPQEHVYDKINGVWNLSSDQGNLGTFFITNVRIVWHANMNDSFNVSIPYLQIRSIKIRDSKFGLALVIESSQQSGGYVLGFKIDPVEKLQESVKEINSLHKVYSASPIFGVDYEMEEKPQPLEALTVEQIQDDVEIDSDGHTDAFVAYFADGNKQQDREPVFSEELGLAIEKLKDGFTLQGLWEVMS
partner: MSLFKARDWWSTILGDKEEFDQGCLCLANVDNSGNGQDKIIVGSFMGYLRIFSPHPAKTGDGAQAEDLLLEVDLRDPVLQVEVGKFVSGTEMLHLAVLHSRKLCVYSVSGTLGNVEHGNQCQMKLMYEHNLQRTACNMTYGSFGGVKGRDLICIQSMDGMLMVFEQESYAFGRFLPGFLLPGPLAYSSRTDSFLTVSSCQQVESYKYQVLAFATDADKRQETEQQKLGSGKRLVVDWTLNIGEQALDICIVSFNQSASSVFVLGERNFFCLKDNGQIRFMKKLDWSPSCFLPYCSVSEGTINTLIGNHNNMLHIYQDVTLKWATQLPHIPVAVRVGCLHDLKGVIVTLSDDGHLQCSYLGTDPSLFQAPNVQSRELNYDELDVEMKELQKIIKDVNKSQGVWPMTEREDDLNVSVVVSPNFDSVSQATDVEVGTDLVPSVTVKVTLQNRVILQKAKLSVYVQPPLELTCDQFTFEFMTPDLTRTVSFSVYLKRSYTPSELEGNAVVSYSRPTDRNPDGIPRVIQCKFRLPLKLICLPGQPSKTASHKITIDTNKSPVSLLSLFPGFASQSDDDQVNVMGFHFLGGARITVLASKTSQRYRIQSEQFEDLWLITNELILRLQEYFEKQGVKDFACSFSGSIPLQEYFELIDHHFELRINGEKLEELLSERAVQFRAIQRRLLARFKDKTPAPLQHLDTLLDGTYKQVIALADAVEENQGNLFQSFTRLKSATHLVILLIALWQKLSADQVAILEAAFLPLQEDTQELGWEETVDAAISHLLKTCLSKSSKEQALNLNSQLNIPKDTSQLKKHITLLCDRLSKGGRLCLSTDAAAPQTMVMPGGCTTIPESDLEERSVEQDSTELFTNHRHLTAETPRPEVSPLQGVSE

Variants of: B1
Details: with pthb1_human BBS9, Q3SYG4

Variant | effect of a mutation on the interaction
MSVLDALWEDRDVRFDLSAQQMKTRPGEVLIDCLDSIEDTKGNNGDRGRLLVTNLRILWHSLALSRVNVSVGYNCILNITTRTANSKLRGATEALYILTKCNSTRFEFIFTNLVPGSPRLFTSVMAVHRAYETSKMYRDFKLRSALIQNKQLRLLPQEHVYDKINGVWNLSSDQGNLGTFFITNVRIVWHANMNDSFNVSIPYLQIRSIKIRDSKFGLALVIESSQQSGGYVLGFKIDPVEKLQESVKEINSLHKVYSASPIFGVDYEMEEKPQPLEALTVEQIQDDVEIDSDGHTDAFVAYFADGNKQQDREPVFSEELGLAIEKLKDGFTLQGLWEVMS [Q91A] | with no effect
MSVLDALWEDRDVRFDLSAQQMKTRPGEVLIDCLDSIEDTKGNNGDRGRLLVTNLRILWHSLALSRVNVSVGYNCILNITTRTANSALRGQTEALYILTKCNSTRFEFIFTNLVPGSPRLFTSVMAVHRAYETSKMYRDFKLRSALIQNKQLRLLPQEHVYDKINGVWNLSSDQGNLGTFFITNVRIVWHANMNDSFNVSIPYLQIRSIKIRDSKFGLALVIESSQQSGGYVLGFKIDPVEKLQESVKEINSLHKVYSASPIFGVDYEMEEKPQPLEALTVEQIQDDVEIDSDGHTDAFVAYFADGNKQQDREPVFSEELGLAIEKLKDGFTLQGLWEVMS [K87A] | with no effect
MSVLDALWEDRDVRFDLSAQQMKTRPGEVLIDCLDSIEDTKGNNGDRGRLLVTNLRILWHSLALSRVNVSVGYNCILNITTRTANSELRGQTEALYILTKCNSTRFEFIFTNLVPGSPRLFTSVMAVHRAYETSKMYRDFKLRSALIQNKQLRLLPQEHVYDKINGVWNLSSDQGNLGTFFITNVRIVWHANMNDSFNVSIPYLQIRSIKIRDSKFGLALVIESSQQSGGYVLGFKIDPVEKLQESVKEINSLHKVYSASPIFGVDYEMEEKPQPLEALTVEQIQDDVEIDSDGHTDAFVAYFADGNKQQDREPVFSEELGLAIEKLKDGFTLQGLWEVMS [K87E] | with no effect
MSVLDALWEDRDVRFDLSAQQMKTRPGEVLIDCLDSIEDTKGNNGDRGRLLVTNLRILWHSLALSRVNVSVGYNCILNITTRTANSKLRKQTEALYILTKCNSTRFEFIFTNLVPGSPRLFTSVMAVHRAYETSKMYRDFKLRSALIQNKQLRLLPQEHVYDKINGVWNLSSDQGNLGTFFITNVRIVWHANMNDSFNVSIPYLQIRSIKIRDSKFGLALVIESSQQSGGYVLGFKIDPVEKLQESVKEINSLHKVYSASPIFGVDYEMEEKPQPLEALTVEQIQDDVEIDSDGHTDAFVAYFADGNKQQDREPVFSEELGLAIEKLKDGFTLQGLWEVMS [G90K] | with no effect
MSVLDALWEDRDVRFDLSAQQMKTRPGEVLIDCLDSIEDTKGNNGDRGRLLVTNLRILWHSLALSRVNVSVGYNCILNITTRTANSKLREQTEALYILTKCNSTRFEFIFTNLVPGSPRLFTSVMAVHRAYETSKMYRDFKLRSALIQNKQLRLLPQEHVYDKINGVWNLSSDQGNLGTFFITNVRIVWHANMNDSFNVSIPYLQIRSIKIRDSKFGLALVIESSQQSGGYVLGFKIDPVEKLQESVKEINSLHKVYSASPIFGVDYEMEEKPQPLEALTVEQIQDDVEIDSDGHTDAFVAYFADGNKQQDREPVFSEELGLAIEKLKDGFTLQGLWEVMS [G90E] | with no effect
MSVLDALWEDRDVRFDLSAQQMKTRPGEVLIDCLDSIEDTKGNNGDRGRLLVTNLRILWHSLALSRVNVSVGYNCILNITTRTANSKLRAQTEALYILTKCNSTRFEFIFTNLVPGSPRLFTSVMAVHRAYETSKMYRDFKLRSALIQNKQLRLLPQEHVYDKINGVWNLSSDQGNLGTFFITNVRIVWHANMNDSFNVSIPYLQIRSIKIRDSKFGLALVIESSQQSGGYVLGFKIDPVEKLQESVKEINSLHKVYSASPIFGVDYEMEEKPQPLEALTVEQIQDDVEIDSDGHTDAFVAYFADGNKQQDREPVFSEELGLAIEKLKDGFTLQGLWEVMS [G90A] | with no effect
MSVLDALWEDRDVRFDLSAQQMKTRPGEVLIDCLDSIEDTKGNNGDRGRLLVTNLRILWHSLALSRVNVSVGYNCILNITTRTANEKLRGQTEALYILTKCNSTRFEFIFTNLVPGSPRLFTSVMAVHRAYETSKMYRDFKLRSALIQNKQLRLLPQEHVYDKINGVWNLSSDQGNLGTFFITNVRIVWHANMNDSFNVSIPYLQIRSIKIRDSKFGLALVIESSQQSGGYVLGFKIDPVEKLQESVKEINSLHKVYSASPIFGVDYEMEEKPQPLEALTVEQIQDDVEIDSDGHTDAFVAYFADGNKQQDREPVFSEELGLAIEKLKDGFTLQGLWEVMS [S86E] | with no effect
MSVLDALWEDRDVRFDLSAQQMKTRPGEVLIDCLDSIEDTKGNNGDRGRLLVTNLRILWHSLALSRVNVSVGYNCILNITTRTANKKLRGQTEALYILTKCNSTRFEFIFTNLVPGSPRLFTSVMAVHRAYETSKMYRDFKLRSALIQNKQLRLLPQEHVYDKINGVWNLSSDQGNLGTFFITNVRIVWHANMNDSFNVSIPYLQIRSIKIRDSKFGLALVIESSQQSGGYVLGFKIDPVEKLQESVKEINSLHKVYSASPIFGVDYEMEEKPQPLEALTVEQIQDDVEIDSDGHTDAFVAYFADGNKQQDREPVFSEELGLAIEKLKDGFTLQGLWEVMS [S86K] | with no effect
MSVLDALWEDRDVRFDLSAQQMKTRPGEVLIDCLDSIEDTKGNNGDRGRLLVTNLRILWHSLALSRVNVSVGYNCILNITTRTANAKLRGQTEALYILTKCNSTRFEFIFTNLVPGSPRLFTSVMAVHRAYETSKMYRDFKLRSALIQNKQLRLLPQEHVYDKINGVWNLSSDQGNLGTFFITNVRIVWHANMNDSFNVSIPYLQIRSIKIRDSKFGLALVIESSQQSGGYVLGFKIDPVEKLQESVKEINSLHKVYSASPIFGVDYEMEEKPQPLEALTVEQIQDDVEIDSDGHTDAFVAYFADGNKQQDREPVFSEELGLAIEKLKDGFTLQGLWEVMS [S86A] | with no effect
MSVLDALWEDRDVRFDLSAQQMKTRPGEVLIDCLDSIEDTKGNNGDRGRLLVTNLRILWHSLALSRVNVSVGYNCILNITTRTANSKLEGQTEALYILTKCNSTRFEFIFTNLVPGSPRLFTSVMAVHRAYETSKMYRDFKLRSALIQNKQLRLLPQEHVYDKINGVWNLSSDQGNLGTFFITNVRIVWHANMNDSFNVSIPYLQIRSIKIRDSKFGLALVIESSQQSGGYVLGFKIDPVEKLQESVKEINSLHKVYSASPIFGVDYEMEEKPQPLEALTVEQIQDDVEIDSDGHTDAFVAYFADGNKQQDREPVFSEELGLAIEKLKDGFTLQGLWEVMS [R89E] | with no effect
MSVLDALWEDRDVRFDLSAQQMKTRPGEVLIDCLDSIEDTKGNNGDRGRLLVTNLRILWHSLALSRVNVSVGYNCILNITTRTANSKLAGQTEALYILTKCNSTRFEFIFTNLVPGSPRLFTSVMAVHRAYETSKMYRDFKLRSALIQNKQLRLLPQEHVYDKINGVWNLSSDQGNLGTFFITNVRIVWHANMNDSFNVSIPYLQIRSIKIRDSKFGLALVIESSQQSGGYVLGFKIDPVEKLQESVKEINSLHKVYSASPIFGVDYEMEEKPQPLEALTVEQIQDDVEIDSDGHTDAFVAYFADGNKQQDREPVFSEELGLAIEKLKDGFTLQGLWEVMS [R89A] | with no effect
MSVLDALWEDRDVRFDLSAQQMKTRPGEVLIDCLDSIEDTKGNNGDRGRLLVTNLRILWHSLALSRVNVSVGYNCILNITTRTANSKLKGQTEALYILTKCNSTRFEFIFTNLVPGSPRLFTSVMAVHRAYETSKMYRDFKLRSALIQNKQLRLLPQEHVYDKINGVWNLSSDQGNLGTFFITNVRIVWHANMNDSFNVSIPYLQIRSIKIRDSKFGLALVIESSQQSGGYVLGFKIDPVEKLQESVKEINSLHKVYSASPIFGVDYEMEEKPQPLEALTVEQIQDDVEIDSDGHTDAFVAYFADGNKQQDREPVFSEELGLAIEKLKDGFTLQGLWEVMS [R89K] | with no effect
MSVLDALWEDRDVRFDLSAQQMKTRPGEVLIDCLDSIEDTKGNNGDRGRLLVTNLRILWHSLALSRVNVSVGYNCILNITTRTAKSKLRGQTEALYILTKCNSTRFEFIFTNLVPGSPRLFTSVMAVHRAYETSKMYRDFKLRSALIQNKQLRLLPQEHVYDKINGVWNLSSDQGNLGTFFITNVRIVWHANMNDSFNVSIPYLQIRSIKIRDSKFGLALVIESSQQSGGYVLGFKIDPVEKLQESVKEINSLHKVYSASPIFGVDYEMEEKPQPLEALTVEQIQDDVEIDSDGHTDAFVAYFADGNKQQDREPVFSEELGLAIEKLKDGFTLQGLWEVMS [N85K] | with no effect
MSVLDALWEDRDVRFDLSAQQMKTRPGEVLIDCLDSIEDTKGNNGDRGRLLVTNLRILWHSLALSRVNVSVGYNCILNITTRTAESKLRGQTEALYILTKCNSTRFEFIFTNLVPGSPRLFTSVMAVHRAYETSKMYRDFKLRSALIQNKQLRLLPQEHVYDKINGVWNLSSDQGNLGTFFITNVRIVWHANMNDSFNVSIPYLQIRSIKIRDSKFGLALVIESSQQSGGYVLGFKIDPVEKLQESVKEINSLHKVYSASPIFGVDYEMEEKPQPLEALTVEQIQDDVEIDSDGHTDAFVAYFADGNKQQDREPVFSEELGLAIEKLKDGFTLQGLWEVMS [N85E] | with no effect
MSVLDALWEDRDVRFDLSAQQMKTRPGEVLIDCLDSIEDTKGNNGDRGRLLVTNLRILWHSLALSRVNVSVGYNCILNITTRTANSKERGQTEALYILTKCNSTRFEFIFTNLVPGSPRLFTSVMAVHRAYETSKMYRDFKLRSALIQNKQLRLLPQEHVYDKINGVWNLSSDQGNLGTFFITNVRIVWHANMNDSFNVSIPYLQIRSIKIRDSKFGLALVIESSQQSGGYVLGFKIDPVEKLQESVKEINSLHKVYSASPIFGVDYEMEEKPQPLEALTVEQIQDDVEIDSDGHTDAFVAYFADGNKQQDREPVFSEELGLAIEKLKDGFTLQGLWEVMS [L88E] | with no effect
MSVLDALWEDRDVRFDLSAQQMKTRPGEVLIDCLDSIEDTKGNNGDRGRLLVTNLRILWHSLALSRVNVSVGYNCILNITTRTANSKKRGQTEALYILTKCNSTRFEFIFTNLVPGSPRLFTSVMAVHRAYETSKMYRDFKLRSALIQNKQLRLLPQEHVYDKINGVWNLSSDQGNLGTFFITNVRIVWHANMNDSFNVSIPYLQIRSIKIRDSKFGLALVIESSQQSGGYVLGFKIDPVEKLQESVKEINSLHKVYSASPIFGVDYEMEEKPQPLEALTVEQIQDDVEIDSDGHTDAFVAYFADGNKQQDREPVFSEELGLAIEKLKDGFTLQGLWEVMS [L88K] | with no effect
MSVLDALWEDRDVRFDLSAQQMKTRPGEVLIDCLDSIEDTKGNNGDRGRLLVTNLRILWHSLALSRVNVSVGYNCILNITTRTANSKARGQTEALYILTKCNSTRFEFIFTNLVPGSPRLFTSVMAVHRAYETSKMYRDFKLRSALIQNKQLRLLPQEHVYDKINGVWNLSSDQGNLGTFFITNVRIVWHANMNDSFNVSIPYLQIRSIKIRDSKFGLALVIESSQQSGGYVLGFKIDPVEKLQESVKEINSLHKVYSASPIFGVDYEMEEKPQPLEALTVEQIQDDVEIDSDGHTDAFVAYFADGNKQQDREPVFSEELGLAIEKLKDGFTLQGLWEVMS [L88A] | with no effect
